Reference: paper PMC8678608

Target: human VEGF165 protein (human)
Test: ELISA; plates coated with recombinant human PD-L1 or VEGF165 (100 ng/well, carbonate buffer); antibody 1 h at room temperature; detected with HRP goat anti-human Fc, TMB, 450 nm

EC50: 0.48 nM
B1: HB0025 (anti-PD-L1/VEGFR1D2-Ig fusion protein) (bispecific antibody, V domains shown)
VH: QVQLVQSGAEVKKPGASVKVSCKASGYAFTGYTIHWVRQAPGQRLEWMGWFYPGSGTLKYSEKFQGRVTITRDKSLSTAYMELSSLRSEDTAVYYCARHGTGTLMAMDYWGQGTLVTVSS
VL: DVVMTQTPLSLSVTPGQPASISCKSSQSLANSYGNTYLSWYLHKPGQSPQLLIYGISNRFSGVPDRFSGSGSGTDFTLKISRVEAEDVGVYYCLQGTHQPPTFGQGTKLEIK
